According to PMC5498496:

How the values were obtained:
[1] = αVβ3 cell surface expression, flow cytometry; details: glycan lost; control: wild-type αV with β3
[2] = αIIbβ3 cell surface expression, flow cytometry; details: glycan lost; control: wild-type β3 with αIIb
[3] = surface expression by mAbs 10E5, AP2, AP3, flow cytometry; details: glycan lost; control: wild-type αIIbβ3
[4] = eptifibatide-induced mAb binding, flow cytometry; details: glycan lost; control: wild-type β3 with αIIb

Row | Protein | expression_or_secretion [1] | expression_or_secretion [2] | further results
1 | integrin αV subunit: αV-N950Q (protein) parent chain: MAFPPRRRLRLGPRGLPLLLSGLLLPLCRAFNLDVDSPAEYSGPEGSYFGFAVDFFVPSASSRMFLLVGAPKANTTQPGIVEGGQVLKCDWSSTRRCQPIEFDATGNRDYAKDDPLEFKSHQWFGASVRSKQDKILACAPLYHWRTEMKQEREPVGTCFLQDGTKTVEYAPCRSQDIDADGQGFCQGGFSIDFTKADRVLLGGPGSFYWQGQLISDQVAEIVSKYDPNVYSIKYNNQLATRTAQAIFDDSYLGYSVAVGDFNGDGIDDFVSGVPRAARTLGMVYIYDGKNMSSLYNFTGEQMAAYFGFSVAATDINGDDYADVFIGAPLFMDRGSDGKLQEVGQVSVSLQRASGDFQTTKLNGFEVFARFGSAIAPLGDLDQDGFNDIAIAAPYGGEDKKGIVYIFNGRSTGLNAVPSQILEGQWAARSMPPSFGYSMKGATDIDKNGYPDLIVGAFGVDRAILYRARPVITVNAGLEVYPSILNQDNKTCSLPGTALKVSCFNVRFCLKADGKGVLPRKLNFQVELLLDKLKQKGAIRRALFLYSRSPSHSKNMTISRGGLMQCEELIAYLRDESEFRDKLTPITIFMEYRLDYRTAADTTGLQPILNQFTPANISRQAHILLDCGEDNVCKPKLEVSVDSDQKKIYIGDDNPLTLIVKAQNQGEGAYEAELIVSIPLQADFIGVVRNNEALARLSCAFKTENQTRQVVCDLGNPMKAGTQLLAGLRFSVHQQSEMDTSVKFDLQIQSSNLFDKVSPVVSHKVDLAVLAAVEIRGVSSPDHVFLPIPNWEHKENPETEEDVGPVVQHIYELRNNGPSSFSKAMLHLQWPYKYNNNTLLYILHYDIDGPMNCTSDMEINPLRIKISSLQTTEKNDTVAGQGERDHLITKRDLALSEGDIHTLGCGVAQCLKIVCQVGRLDRGKSAILYVKSLLWTETFMNKENQNHSYSLKSSASFNVIEFPYKNLPIEDITNSTLVTTNVTWGIQPAPMPVPVWVIILAVLAGLLLLAVLVFVMYRMGFFKRVRPPQEEQEREQLQPHENGEGNSET | decreases |  | 
2 | integrin αV subunit: αV-N943Q (protein) parent chain: MAFPPRRRLRLGPRGLPLLLSGLLLPLCRAFNLDVDSPAEYSGPEGSYFGFAVDFFVPSASSRMFLLVGAPKANTTQPGIVEGGQVLKCDWSSTRRCQPIEFDATGNRDYAKDDPLEFKSHQWFGASVRSKQDKILACAPLYHWRTEMKQEREPVGTCFLQDGTKTVEYAPCRSQDIDADGQGFCQGGFSIDFTKADRVLLGGPGSFYWQGQLISDQVAEIVSKYDPNVYSIKYNNQLATRTAQAIFDDSYLGYSVAVGDFNGDGIDDFVSGVPRAARTLGMVYIYDGKNMSSLYNFTGEQMAAYFGFSVAATDINGDDYADVFIGAPLFMDRGSDGKLQEVGQVSVSLQRASGDFQTTKLNGFEVFARFGSAIAPLGDLDQDGFNDIAIAAPYGGEDKKGIVYIFNGRSTGLNAVPSQILEGQWAARSMPPSFGYSMKGATDIDKNGYPDLIVGAFGVDRAILYRARPVITVNAGLEVYPSILNQDNKTCSLPGTALKVSCFNVRFCLKADGKGVLPRKLNFQVELLLDKLKQKGAIRRALFLYSRSPSHSKNMTISRGGLMQCEELIAYLRDESEFRDKLTPITIFMEYRLDYRTAADTTGLQPILNQFTPANISRQAHILLDCGEDNVCKPKLEVSVDSDQKKIYIGDDNPLTLIVKAQNQGEGAYEAELIVSIPLQADFIGVVRNNEALARLSCAFKTENQTRQVVCDLGNPMKAGTQLLAGLRFSVHQQSEMDTSVKFDLQIQSSNLFDKVSPVVSHKVDLAVLAAVEIRGVSSPDHVFLPIPNWEHKENPETEEDVGPVVQHIYELRNNGPSSFSKAMLHLQWPYKYNNNTLLYILHYDIDGPMNCTSDMEINPLRIKISSLQTTEKNDTVAGQGERDHLITKRDLALSEGDIHTLGCGVAQCLKIVCQVGRLDRGKSAILYVKSLLWTETFMNKENQNHSYSLKSSASFNVIEFPYKNLPIEDITNSTLVTTNVTWGIQPAPMPVPVWVIILAVLAGLLLLAVLVFVMYRMGFFKRVRPPQEEQEREQLQPHENGEGNSET | decreases |  | 
3 | integrin αV subunit: αV-N458Q (protein) parent chain: MAFPPRRRLRLGPRGLPLLLSGLLLPLCRAFNLDVDSPAEYSGPEGSYFGFAVDFFVPSASSRMFLLVGAPKANTTQPGIVEGGQVLKCDWSSTRRCQPIEFDATGNRDYAKDDPLEFKSHQWFGASVRSKQDKILACAPLYHWRTEMKQEREPVGTCFLQDGTKTVEYAPCRSQDIDADGQGFCQGGFSIDFTKADRVLLGGPGSFYWQGQLISDQVAEIVSKYDPNVYSIKYNNQLATRTAQAIFDDSYLGYSVAVGDFNGDGIDDFVSGVPRAARTLGMVYIYDGKNMSSLYNFTGEQMAAYFGFSVAATDINGDDYADVFIGAPLFMDRGSDGKLQEVGQVSVSLQRASGDFQTTKLNGFEVFARFGSAIAPLGDLDQDGFNDIAIAAPYGGEDKKGIVYIFNGRSTGLNAVPSQILEGQWAARSMPPSFGYSMKGATDIDKNGYPDLIVGAFGVDRAILYRARPVITVNAGLEVYPSILNQDNKTCSLPGTALKVSCFNVRFCLKADGKGVLPRKLNFQVELLLDKLKQKGAIRRALFLYSRSPSHSKNMTISRGGLMQCEELIAYLRDESEFRDKLTPITIFMEYRLDYRTAADTTGLQPILNQFTPANISRQAHILLDCGEDNVCKPKLEVSVDSDQKKIYIGDDNPLTLIVKAQNQGEGAYEAELIVSIPLQADFIGVVRNNEALARLSCAFKTENQTRQVVCDLGNPMKAGTQLLAGLRFSVHQQSEMDTSVKFDLQIQSSNLFDKVSPVVSHKVDLAVLAAVEIRGVSSPDHVFLPIPNWEHKENPETEEDVGPVVQHIYELRNNGPSSFSKAMLHLQWPYKYNNNTLLYILHYDIDGPMNCTSDMEINPLRIKISSLQTTEKNDTVAGQGERDHLITKRDLALSEGDIHTLGCGVAQCLKIVCQVGRLDRGKSAILYVKSLLWTETFMNKENQNHSYSLKSSASFNVIEFPYKNLPIEDITNSTLVTTNVTWGIQPAPMPVPVWVIILAVLAGLLLLAVLVFVMYRMGFFKRVRPPQEEQEREQLQPHENGEGNSET | no change |  | 
4 | integrin β3 subunit: β3-N320Q-N559Q (protein) parent chain: MRARPRPRPLWATVLALGALAGVGVGGPNICTTRGVSSCQQCLAVSPMCAWCSDEALPLGSPRCDLKENLLKDNCAPESIEFPVSEARVLEDRPLSDKGSGDSSQVTQVSPQRIALRLRPDDSKNFSIQVRQVEDYPVDIYYLMDLSYSMKDDLWSIQNLGTKLATQMRKLTSNLRIGFGAFVDKPVSPYMYISPPEALENPCYDMKTTCLPMFGYKHVLTLTDQVTRFNEEVKKQSVSRNRDAPEGGFDAIMQATVCDEKIGWRNDASHLLVFTTDAKTHIALDGRLAGIVQPNDGQCHVGSDNHYSASTTMDYPSLGLMTEKLSQKNINLIFAVTENVVNLYQNYSELIPGTTVGVLSMDSSNVLQLIVDAYGKIRSKVELEVRDLPEELSLSFNATCLNNEVIPGLKSCMGLKIGDTVSFSIEAKVRGCPQEKEKSFTIKPVGFKDSLIVQVTFDCDCACQAQAEPNSHRCNNGNGTFECGVCRCGPGWLGSQCECSEEDYRPSQQDECSPREGQPVCSQRGECLCGQCVCHSSDFGKITGKYCECDDFSCVRYKGEMCSGHGQCSCGDCLCDSDWTGYYCNCTTRTDTCMSSNGLLCSGRGKCECGSCVCIQPGSYGDTCEKCPTCPDACTFKKECVECKKFDRGALHDENTCNRYCRDEIESVKELKDTGKDAVNCTYKNEDDCVVRFQYYEDSSGKSILYVVEEPECPKGPDILVVLLSVMGAILLIGLAALLIWKLLITIHDRKEFAKFEEERARAKWDTANNPLYKEATSTFTNITYRGT |  | decreases | 
5 | integrin β3 subunit: β3-N320S (protein) parent chain: MRARPRPRPLWATVLALGALAGVGVGGPNICTTRGVSSCQQCLAVSPMCAWCSDEALPLGSPRCDLKENLLKDNCAPESIEFPVSEARVLEDRPLSDKGSGDSSQVTQVSPQRIALRLRPDDSKNFSIQVRQVEDYPVDIYYLMDLSYSMKDDLWSIQNLGTKLATQMRKLTSNLRIGFGAFVDKPVSPYMYISPPEALENPCYDMKTTCLPMFGYKHVLTLTDQVTRFNEEVKKQSVSRNRDAPEGGFDAIMQATVCDEKIGWRNDASHLLVFTTDAKTHIALDGRLAGIVQPNDGQCHVGSDNHYSASTTMDYPSLGLMTEKLSQKNINLIFAVTENVVNLYQNYSELIPGTTVGVLSMDSSNVLQLIVDAYGKIRSKVELEVRDLPEELSLSFNATCLNNEVIPGLKSCMGLKIGDTVSFSIEAKVRGCPQEKEKSFTIKPVGFKDSLIVQVTFDCDCACQAQAEPNSHRCNNGNGTFECGVCRCGPGWLGSQCECSEEDYRPSQQDECSPREGQPVCSQRGECLCGQCVCHSSDFGKITGKYCECDDFSCVRYKGEMCSGHGQCSCGDCLCDSDWTGYYCNCTTRTDTCMSSNGLLCSGRGKCECGSCVCIQPGSYGDTCEKCPTCPDACTFKKECVECKKFDRGALHDENTCNRYCRDEIESVKELKDTGKDAVNCTYKNEDDCVVRFQYYEDSSGKSILYVVEEPECPKGPDILVVLLSVMGAILLIGLAALLIWKLLITIHDRKEFAKFEEERARAKWDTANNPLYKEATSTFTNITYRGT |  | decreases | 
6 | integrin β3 subunit: β3-N320R (protein) parent chain: MRARPRPRPLWATVLALGALAGVGVGGPNICTTRGVSSCQQCLAVSPMCAWCSDEALPLGSPRCDLKENLLKDNCAPESIEFPVSEARVLEDRPLSDKGSGDSSQVTQVSPQRIALRLRPDDSKNFSIQVRQVEDYPVDIYYLMDLSYSMKDDLWSIQNLGTKLATQMRKLTSNLRIGFGAFVDKPVSPYMYISPPEALENPCYDMKTTCLPMFGYKHVLTLTDQVTRFNEEVKKQSVSRNRDAPEGGFDAIMQATVCDEKIGWRNDASHLLVFTTDAKTHIALDGRLAGIVQPNDGQCHVGSDNHYSASTTMDYPSLGLMTEKLSQKNINLIFAVTENVVNLYQNYSELIPGTTVGVLSMDSSNVLQLIVDAYGKIRSKVELEVRDLPEELSLSFNATCLNNEVIPGLKSCMGLKIGDTVSFSIEAKVRGCPQEKEKSFTIKPVGFKDSLIVQVTFDCDCACQAQAEPNSHRCNNGNGTFECGVCRCGPGWLGSQCECSEEDYRPSQQDECSPREGQPVCSQRGECLCGQCVCHSSDFGKITGKYCECDDFSCVRYKGEMCSGHGQCSCGDCLCDSDWTGYYCNCTTRTDTCMSSNGLLCSGRGKCECGSCVCIQPGSYGDTCEKCPTCPDACTFKKECVECKKFDRGALHDENTCNRYCRDEIESVKELKDTGKDAVNCTYKNEDDCVVRFQYYEDSSGKSILYVVEEPECPKGPDILVVLLSVMGAILLIGLAALLIWKLLITIHDRKEFAKFEEERARAKWDTANNPLYKEATSTFTNITYRGT |  |  | expression_or_secretion [3]: no change; structure_or_conformation [4]: decreases
